Experiment [1] has as its target T1, human FAP on 3T3-huFAP cells (clone 19) (human, UniProt Q12884 1-760). Briefly: flow cytometry on 3T3-huFAP cells, PE anti-human secondary antibody, median fluorescence intensity. (Flow cytometry measures light scatter and fluorescence of single cells or particles in a stream.)
For experiment [2], the target named is T2, human CEA (CEACAM5), form in the assay not stated (human, UniProt P06731 35-685, limits assumed).
T2 sequence: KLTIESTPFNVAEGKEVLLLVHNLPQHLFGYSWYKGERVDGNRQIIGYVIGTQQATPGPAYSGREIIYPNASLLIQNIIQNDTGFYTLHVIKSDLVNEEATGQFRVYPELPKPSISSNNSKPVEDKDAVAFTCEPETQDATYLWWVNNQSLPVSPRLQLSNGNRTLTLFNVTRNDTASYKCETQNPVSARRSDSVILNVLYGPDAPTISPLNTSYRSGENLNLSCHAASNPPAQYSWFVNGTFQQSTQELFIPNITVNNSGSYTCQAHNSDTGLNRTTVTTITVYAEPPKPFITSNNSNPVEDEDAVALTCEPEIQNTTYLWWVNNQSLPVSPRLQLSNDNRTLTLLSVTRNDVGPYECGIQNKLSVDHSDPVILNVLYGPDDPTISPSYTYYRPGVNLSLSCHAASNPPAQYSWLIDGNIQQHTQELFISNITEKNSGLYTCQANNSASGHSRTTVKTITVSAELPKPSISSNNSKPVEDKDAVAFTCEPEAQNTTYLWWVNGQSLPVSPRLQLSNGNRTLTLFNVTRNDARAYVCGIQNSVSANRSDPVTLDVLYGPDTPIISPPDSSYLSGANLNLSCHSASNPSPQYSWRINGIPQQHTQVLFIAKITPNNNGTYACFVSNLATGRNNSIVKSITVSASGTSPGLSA
The experiment is described as follows: SPR. (In general: In SPR one partner is held on a chip, and binding of the other changes the refractive index at the surface.)

Experiment [3] deals with T3, human CD28 on CHO cells (parental cell line CHO-k1 ATCC #CCL-61, modified to stably overexpress human CD28) (human, UniProt P10747 19-220).
T3 construct: also called hu CD28; CHO-hCD28
Briefly: flow cytometry on CHO-k1 cells expressing human CD28, PE anti-human secondary antibody, MFI.

In experiment [4] the target is T1, human FAP on 3T3-huFAP cells (clone 19). The experiment is described as follows: flow cytometry on 3T3-huFAP cells, median fluorescence intensity (axis MFI APC).

B1: FAP-CD28CA 1+2 (P1AD8962) (bispecific antibody)
CD28(mAb 9.3) light chain: DIELTQSPASLAVSLGQRATISCRASESVEYYVTSLMQWYQQKPGQPPKLLIFAASNVESGVPARFSGSGSGTNFSLNIHPVDEDDVAMYFCQQSRKVPYTFGGGTKLEIKRTVAAPSVFIFPPSDEQLKSGTASVVCLLNNFYPREAKVQWKVDNALQSGNSQESVTEQDSKDSTYSLSSTLTLSKADYEKHKVYACEVTHQGLSSPVTKSFNRGEC
heavy chain CD28(mAb 9.3) VHCH - Fc knob - FAP(4B9) VH: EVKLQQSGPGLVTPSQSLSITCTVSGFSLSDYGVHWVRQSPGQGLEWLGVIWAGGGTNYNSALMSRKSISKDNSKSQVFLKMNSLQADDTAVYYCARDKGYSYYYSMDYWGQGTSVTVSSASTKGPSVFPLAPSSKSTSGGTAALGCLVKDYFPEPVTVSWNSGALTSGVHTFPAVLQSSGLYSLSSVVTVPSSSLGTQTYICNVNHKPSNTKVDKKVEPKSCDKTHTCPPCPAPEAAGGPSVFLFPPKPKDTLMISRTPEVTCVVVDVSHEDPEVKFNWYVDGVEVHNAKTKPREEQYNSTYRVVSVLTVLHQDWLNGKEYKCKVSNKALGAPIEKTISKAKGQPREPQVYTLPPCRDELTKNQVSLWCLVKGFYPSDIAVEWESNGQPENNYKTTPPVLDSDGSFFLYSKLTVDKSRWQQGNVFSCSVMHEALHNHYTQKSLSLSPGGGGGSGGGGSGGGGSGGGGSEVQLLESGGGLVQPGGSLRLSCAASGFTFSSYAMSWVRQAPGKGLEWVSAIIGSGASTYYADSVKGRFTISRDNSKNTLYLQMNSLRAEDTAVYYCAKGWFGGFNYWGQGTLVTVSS
heavy chain CD28(mAb 9.3) VHCH - Fc hole - FAP(4B9) VL: EVKLQQSGPGLVTPSQSLSITCTVSGFSLSDYGVHWVRQSPGQGLEWLGVIWAGGGTNYNSALMSRKSISKDNSKSQVFLKMNSLQADDTAVYYCARDKGYSYYYSMDYWGQGTSVTVSSASTKGPSVFPLAPSSKSTSGGTAALGCLVKDYFPEPVTVSWNSGALTSGVHTFPAVLQSSGLYSLSSVVTVPSSSLGTQTYICNVNHKPSNTKVDKKVEPKSCDKTHTCPPCPAPEAAGGPSVFLFPPKPKDTLMISRTPEVTCVVVDVSHEDPEVKFNWYVDGVEVHNAKTKPREEQYNSTYRVVSVLTVLHQDWLNGKEYKCKVSNKALGAPIEKTISKAKGQPREPQVCTLPPSRDELTKNQVSLSCAVKGFYPSDIAVEWESNGQPENNYKTTPPVLDSDGSFFLVSKLTVDKSRWQQGNVFSCSVMHEALHNHYTQKSLSLSPGGGGGSGGGGSGGGGSGGGGSEIVLTQSPGTLSLSPGERATLSCRASQSVTSSYLAWYQQKPGQAPRLLINVGSRRATGIPDRFSGSGSGTDFTLTISRLEPEDFAVYYCQQGIMLPPTFGQGTKVEIK
notes: also called Molecule Q; FAP(4B9)-CD28(mAb9.3) 1+2
Turning to B1, the binding result in experiment [1] was “binds”.

B2: FAP-CD28CA 2+2 (P1AD8968) (bispecific antibody)
heavy chain CD28(mAb 9.3) VHCH EE - Fc PGLALA - FAP(4B9) VHCL: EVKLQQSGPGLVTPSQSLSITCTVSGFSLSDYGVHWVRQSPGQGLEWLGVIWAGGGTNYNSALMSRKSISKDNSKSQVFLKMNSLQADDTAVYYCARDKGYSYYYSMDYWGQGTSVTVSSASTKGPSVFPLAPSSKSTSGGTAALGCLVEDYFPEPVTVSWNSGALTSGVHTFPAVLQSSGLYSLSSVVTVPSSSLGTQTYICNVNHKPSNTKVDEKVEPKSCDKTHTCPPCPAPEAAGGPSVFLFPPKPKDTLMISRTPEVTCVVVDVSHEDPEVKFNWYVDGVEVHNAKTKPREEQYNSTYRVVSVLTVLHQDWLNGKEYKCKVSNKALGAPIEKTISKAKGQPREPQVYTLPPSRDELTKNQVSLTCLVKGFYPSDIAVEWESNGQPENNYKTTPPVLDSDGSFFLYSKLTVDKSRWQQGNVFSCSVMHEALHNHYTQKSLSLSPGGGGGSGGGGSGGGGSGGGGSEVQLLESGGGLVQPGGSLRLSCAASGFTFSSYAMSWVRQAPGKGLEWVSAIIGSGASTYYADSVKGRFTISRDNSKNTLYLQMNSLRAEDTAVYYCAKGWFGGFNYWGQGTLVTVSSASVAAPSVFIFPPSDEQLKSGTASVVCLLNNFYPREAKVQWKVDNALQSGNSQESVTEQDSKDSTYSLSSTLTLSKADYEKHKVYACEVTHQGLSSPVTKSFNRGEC
CD28(mAb 9.3) light chain VLCL RK: DIELTQSPASLAVSLGQRATISCRASESVEYYVTSLMQWYQQKPGQPPKLLIFAASNVESGVPARFSGSGSGTNFSLNIHPVDEDDVAMYFCQQSRKVPYTFGGGTKLEIKRTVAAPSVFIFPPSDRKLKSGTASVVCLLNNFYPREAKVQWKVDNALQSGNSQESVTEQDSKDSTYSLSSTLTLSKADYEKHKVYACEVTHQGLSSPVTKSFNRGEC
FAP(4B9) VLCH1: EIVLTQSPGTLSLSPGERATLSCRASQSVTSSYLAWYQQKPGQAPRLLINVGSRRATGIPDRFSGSGSGTDFTLTISRLEPEDFAVYYCQQGIMLPPTFGQGTKVEIKSSASTKGPSVFPLAPSSKSTSGGTAALGCLVKDYFPEPVTVSWNSGALTSGVHTFPAVLQSSGLYSLSSVVTVPSSSLGTQTYICNVNHKPSNTKVDKKVEPKSC
notes: also called Molecule R; FAP(4B9)-CD28(mAb9.3) 2+2
In the case of B2, the EC50 (read off the curve) (usually the midpoint of the concentration-response curve) in experiment [1] is around 1 nM.

B3: murine CEA antibody A5B7 (parental) (antibody, V domains shown)
VH: EVKLVESGGGLVQPGGSLRLSCATSGFTFTDYYMNWVRQPPGKALEWLGFIGNKANGYTTEYSASVKGRFTISRDKSQSILYLQMNTLRAEDSATYYCTRDRGLRFYFDYWGQGTTLTVSS
VL: QTVLSQSPAILSASPGEKVTMTCRASSSVTYIHWYQQKPGSSPKSWIYATSNLASGVPARFSGSGSGTSYSLTISRVEAEDAATYYCQHWSSKPPTFGGGTKLEIK
notes: also called parental murine A5B7 antibody; parental chimeric antibody
As for B3, the Kd (commonly the free concentration of one partner at which half of the binding sites on the other are occupied at equilibrium, for simple one-to-one binding) in experiment [2] is around 0.8 nM.

B4: EpCAM (MT201)-CD28 (SA_Variant 15) 1+1 format (Molecule 14A) (bispecific antibody, human IgG1, kappa, L234A L235A)
heavy 1: not shown
light 1: QVQLVQSGAEVKKPGASVKVSCKASGYTFTSYYIHWVRQAPGQGLEWIGSIYPGNVQTNYNEKFKDRATLTVDTSISTAYMELSRLRSDDTAVYFCTRSHYGLDWNFDVWGQGTTVTVSSASVAAPSVFIFPPSDEQLKSGTASVVCLLNNFYPREAKVQWKVDNALQSGNSQESVTEQDSKDSTYSLSSTLTLSKADYEKHKVYACEVTHQGLSSPVTKSFNRGEC
heavy 2: not shown
light 2: ELQMTQSPSSLSASVGDRVTITCRTSQSISSYLNWYQQKPGQPPKLLIYWASTRESGVPDRFSGSGSGTDFTLTISSLQPEDSATYYCQQSYDIPYTFGQGTKLEIKRTVAAPSVFIFPPSDRKLKSGTASVVCLLNNFYPREAKVQWKVDNALQSGNSQESVTEQDSKDSTYSLSSTLTLSKADYEKHKVYACEVTHQGLSSPVTKSFNRGEC
notes: huIgG1 PG-LALA CrossFab; also called P1AE9051; EpCAM-CD28
For B4, the concentration giving a half-maximal response (EC50 (read off the curve)) in experiment [3] is around 8 nM.

B5: FAP-CD28 H2T (P1AE2021) (bispecific antibody, human IgG1, kappa, L234A L235A)
heavy chain CD28(SA) VLCH1 - FAP(4B9) VHCH1 EE - Fc knob PGLALA: not shown
CD28(SA) VHCL: QVQLVQSGAEVKKPGASVKVSCKASGYTFTSYYIHWVRQAPGQGLEWIGCIYPGNVNTNYNEKFKDRATLTVDTSISTAYMELSRLRSDDTAVYFCTRSHYGLDWNFDVWGQGTTVTVSSASVAAPSVFIFPPSDEQLKSGTASVVCLLNNFYPREAKVQWKVDNALQSGNSQESVTEQDSKDSTYSLSSTLTLSKADYEKHKVYACEVTHQGLSSPVTKSFNRGEC
FAP(4B9) VLCL RK: EIVLTQSPGTLSLSPGERATLSCRASQSVTSSYLAWYQQKPGQAPRLLINVGSRRATGIPDRFSGSGSGTDFTLTISRLEPEDFAVYYCQQGIMLPPTFGQGTKVEIKRTVAAPSVFIFPPSDRKLKSGTASVVCLLNNFYPREAKVQWKVDNALQSGNSQESVTEQDSKDSTYSLSSTLTLSKADYEKHKVYACEVTHQGLSSPVTKSFNRGEC
Fc hole PGLALA: DKTHTCPPCPAPEAAGGPSVFLFPPKPKDTLMISRTPEVTCVVVDVSHEDPEVKFNWYVDGVEVHNAKTKPREEQYNSTYRVVSVLTVLHQDWLNGKEYKCKVSNKALGAPIEKTISKAKGQPREPQVCTLPPSRDELTKNQVSLSCAVKGFYPSDIAVEWESNGQPENNYKTTPPVLDSDGSFFLVSKLTVDKSRWQQGNVFSCSVMHEALHNHYTQKSLSLSP
notes: head-to-tail 1+1 format; also called Molecule H; FAP(4B9)-CD28(SA) C-01
Consider B5, for which, in experiment [4], the “EC50 (read off the curve)” value is around 1 nM.
